Experiment: yeast display, Sf9 membrane polyspecificity reagent, FACS + sequencing; frameworks hold sequencing errors
In short: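 Galactose-induced (36–48 hours) yeast carrying a synthetic nanobody display library were exposed to 10% biotinylated, detergent-solubilized Sf9 membrane reagent at 4 °C for 1 hour. FACS followed streptavidin microbead enrichment, using low and high (top ~1%) gates for expression (anti-HA) and reagent binding (streptavidin). Colony PCR, MiSeq 2 × 250 sequencing and CDR-length filtering followed. Labels for polyreactivity reflect the gate of origin.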

QVQLVESGGGLVQAGGSLRLRCAATGRTFGWYAMGWYRQAPGKEREFVATITRSGGRTYYADSVKGRFTISRDNAKNTVYFQMNSLKPEDTAVYYCAADTNRYRYSYDYWGQGTQVTVSS
polyreactivity (PSR sort gate): high polyreactivity

QVQLVESGGGLVQAGGSLRLRCAAYGSIFDKNSMGWYRQAPGKERELVAAITRSGRSTYYADSVKGRFTISRDNAKNTVYLQMNSLKPEDTALYYCAADVWPRWGLYYWGQGTQVTVTS
polyreactivity (PSR sort gate): high polyreactivity

QVQLVESGGGLVQAGGSLRLRCASSGITFTLNAMGWYRQAPGKERELVAAISGSGGRTYYADSVKGRFTISRDNAKNTVYLQMNSLKPEDTAVYYCAAAVLDRYTRYIWYIYDYWGQGTQVTVSS
polyreactivity (PSR sort gate): high polyreactivity

QVQLVESGGGLVQAGGSLRLRCASSGRIFFGYAMGWYRQAPGKERELVASISRGGSTNYADSVKGRFTISRDNAKNTVYLQMHSLKPEDTAVYYCAASRYLQRYGMYYWGQGTQVTVSS
polyreactivity (PSR sort gate): high polyreactivity

QVQLVESGGGLVQAGGSLRLRCASSGRTFQYYAMGWYRQAPGKEMELVAAISWSGGSTYYADSVKGRFTISRDNAKNTVYLQMNSLKPEDTAVYYCAAVVGRNGTRSYGYWGQGTQVTVSS
polyreactivity (PSR sort gate): high polyreactivity

QVQLVESGGGLVQAGGSLRLRCGASGSTFGIYAMGWYRQAPGKERELVAAITLRTDSTYYADSVKGRFTISRDNAKNTVYLQMNSLKPEDTAVYYCARRYRYGYDYWGQGTQVSVSS
polyreactivity (PSR sort gate): low polyreactivity

QVQLVESGGGLVQAGGSLRLRCPASGRIIGSYTMGSYRQAPGKERELVAAISFSGARTRYADSVKGRFTISRDNAKNTVYFQMNSLKAEDTAVYYCAARFTGGKYDYWGLGTQVTVSS
polyreactivity (PSR sort gate): high polyreactivity

QVQLVESGGGLVQAGGSLRLRGAASGSTFGPNAMGWYRPAPGKEREFVASISWRGGRTYYADSVKGRFTISRDNAKNTVYLQMNSLNPEDTAVYYCAAVSYPAVYGFDYWGQGTQVTVSS
polyreactivity (PSR sort gate): high polyreactivity

QVQLVESGGGLVQAGGSLRLRSAASGSIIPEYVMGWYRQAPGKERELVAAISWSGGSTYYADSVKGRFTISRDNAKNTDYLQMNSLKPEDTAVYYCNRVPSWRIDYDYWGQGTQVTVSS
polyreactivity (PSR sort gate): low polyreactivity

QVQLVESGGGLVQAGGSLRLSCAAAGFIFRYYAMGWYRPAPGKVRELVAAITNSGVSTYYADSVKGRFTISRDNAKNTVYLQMNRLKPEDTAVYYCAATYRTRTSQYDYWGQGTQVTVSS
polyreactivity (PSR sort gate): high polyreactivity

QVQLVESGGGLVQAGGSLRLSCAAAGITFTVYAMGWYRPAPGKERELVAAISQSGGSTYYADSVKGRFTISRDNAKNTVSLQMNSMKPEDTAVYSCNADTVWVPYRTYIPFDYWGQGTQVTVSS
polyreactivity (PSR sort gate): low polyreactivity

QVQLVESGGGLVQAGGSLRLSCAAAGRIFGINALGWYRQAPGKERELVAAISWRSGSTYYADSVKGRFTISRDNAKNTVYLQMNSLKPEATAVYYCAARYFVRNYYQNDYWGQGTQVTVSS
polyreactivity (PSR sort gate): low polyreactivity

QVQLVESGGGLVQAGGSLRLSCAAAGRSFGRNAMGWYRQAPGKERELVAAISTSSGSTYYADSVKGRFTISRDNAKNTVYLQMNSLKPEDTAGYYCAARDDSYRRYEYGYWGQGTQVTVSS
polyreactivity (PSR sort gate): high polyreactivity

QVQLVESGGGLVQAGGSLRLSCAAAGRTFGDYDMGWYRQAPGKERELVAAITSDGTTYYADYVKGRFTISGDNAKNTVYLQMNSLKPEDTAVYYCAADYWYVSWYDYWGHGTQVTVSS
polyreactivity (PSR sort gate): low polyreactivity

QVQLVESGGGLVQAGGSLRLSCAAAGSIFRINDMGWYRQATGKERELVAAITFSGGSTYADSVKGRFTISRDNAKNTVYLQMNSLKPEDTAVYYCNADGAYWTDYYLYDYWGHGTQVTVSS
polyreactivity (PSR sort gate): low polyreactivity

QVQLVESGGGLVQAGGSLRLSCAACGFIFYYNAMGWYRQAHGKVRELVAAISSSAGSTYYADSVKGRFTISRDNAKNTVYLQMNSLKPEDTAVYDCAASRPPNTSNTGYGSWGQGTQVTVSS
polyreactivity (PSR sort gate): low polyreactivity

QVQLVESGGGLVQAGGSLRLSCAACGFTFQYYAMGWYRQAPGKVRELVATITTSGGNTYYADSVKGRFTISRDNAKNTVYLQMNSLKPEDTAVYYCAARSYRASSRGYVYWGQGTQVTVSS
polyreactivity (PSR sort gate): high polyreactivity

QVQLVESGGGLVQAGGSLRLSCAACGITFPTNMGWYRQAPGKERELVAAIRLSGGSTSYADSVKGRFTISRDNAKNSVYLQMTSLKPEDTAVSSCAAGGYPGGEDYWGQGTQVTVSS
polyreactivity (PSR sort gate): low polyreactivity

QVQLVESGGGLVQAGGSLRLSCAACGLTITFYAMGWYRQAPGKERELVAAISRSGGSTYYADSVKGRFTISRDNAKNTVYLQMNSLKPEVTAVYYCAVVGGYYEFDYEGDYWGQGTQVTVSS
polyreactivity (PSR sort gate): low polyreactivity

QVQLVESGGGLVQAGGSLRLSCAACGRIFDRNAMGWYRQAPGKERELVAAITRSGGRTYYADSVKGRFTISRDNAKNSVYLQMNSLKPEDTAVYYCNRGYPRSVVHYNSWGQGTQVTVSS
polyreactivity (PSR sort gate): low polyreactivity

QVQLVESGGGLVQAGGSLRLSCAACGRILTYYAMGWYRQAPGKERELVAAISWRAGSTYYADSVKGRFTISRDNAKNTVYLQMNSLKPEDTAVYYCAAKPYYIPTRTYSHYNYWGQGTQVTVSS
polyreactivity (PSR sort gate): high polyreactivity

QVQLVESGGGLVQAGGSLRLSCAACGRTFYNYAMGWYRQAPGKERELVAAITRGGSTYYADSVKGRFTISRDNAKNTVYLQMNSLKPEDTAVYYCNAVFPYEHEEYDYWGQGTQVTVSS
polyreactivity (PSR sort gate): high polyreactivity

QVQLVESGGGLVQAGGSLRLSCAACGSIFYLNAMGWYRQAPGKERELVAAITNGGSTYADSVKGRFTISRDNAKNTVYLQMNSLKPEDTAVYYCATRSWELGDYWGQGTQVTVSS
polyreactivity (PSR sort gate): low polyreactivity

QVQLVESGGGLVQAGGSLRLSCAACGSTFHWNTMVWYRQAPGKERELVAAITYSGGRTYYADSVKGRFTISRDNAKNTVYLQMNSLKPEDTAVYYCAARYWRGSVTSYYYWGQGTQVTVSS
polyreactivity (PSR sort gate): high polyreactivity

QVQLVESGGGLVQAGGSLRLSCAACGSTFNGYTMGWYRQAPGKERELVAAISKSGGRTYYADSVKGRFTISRDNAKNTVYLQMNSLKPEDTAVYYCNKLTQSSYGWGQGTQVTVSS
polyreactivity (PSR sort gate): high polyreactivity

QVQLVESGGGLVQAGGSLRLSCAACGSTFPGNAKGWYRQAPGKERELVAAISSSGGITYYADSVKGRFTISRDNAKNTVYLQMNSLIPEDTAVYYCSWGHGTQVTVSS
polyreactivity (PSR sort gate): low polyreactivity

QVQLVESGGGLVQAGGSLRLSCAACGSTFRYNTMGWYRQATGTEREVVAAISSAATTNYADSVKGRFTISRDNAKNTVYLQLNSLNPEDTALYYCARGYSWSVGYPRVQDMDYWGQGTQVTVSS
polyreactivity (PSR sort gate): high polyreactivity

QVQLVESGGGLVQAGGSLRLSCAAFGRIFQYYAMGWYRQAPGKERELVAAITRSGGSTYYADSVKGRFTISRDNAKNTVYLQMNSLKPEDTAVYYCAAYSRYTVREGYDYWGQGTQVTVSS
polyreactivity (PSR sort gate): high polyreactivity

QVQLVESGGGLVQAGGSLRLSCAAPGNTFQYYAMGWSRQAPGKEREFVAAISRRGGSTYYADSVKGRFTISRDNAKNTVYLQMNSLKPEDTAVYYCNKVIFLSQSSYSFLYAYDYWGQGTQVTVSS
polyreactivity (PSR sort gate): high polyreactivity

QVQLVESGGGLVQAGGSLRLSCAAPGSIFYQNAMGGYRQAPGKERELVAAISRSGGSTYYADSVKGRFTISRDNAKNTVYLQMNSLKPEDTAVYYCAARISRQRSYSRDYWGQGTQVTVSS
polyreactivity (PSR sort gate): high polyreactivity

QVQLVESGGGLVQAGGSLRLSCAASAAIFTKNAMGWYRQAPAKERELVAAITGSGASTYYADSVKGRFTISRDNAKNTVYLQMNSLKPEDTAVYYCNTDSPYGWEGEFDYWGQGTQVTVSS
polyreactivity (PSR sort gate): high polyreactivity

QVQLVESGGGLVQAGGSLRLSCAASAFIFGHYAMGWYRQAPGKERELVAGINSSGGSTHYADSVKGRFTISRDNAKKTVYLQMNSLKPEDTAVYYCAVAARTRARVLYGYDYWGQGTQVTVSS
polyreactivity (PSR sort gate): low polyreactivity

QVQLVESGGGLVQAGGSLRLSCAASAFIFSRNAMGWYRQAPGKDRELVAAISLRGGSTSYADSVKGRFTISRDTAKNTVYIQMNSLKPEDTAVYYCAKYDRNTYGYWGQGTEVTVSS
polyreactivity (PSR sort gate): low polyreactivity

QVQLVESGGGLVQAGGSLRLSCAASAFIIHRYAMGWYRQAPGKERELVAVITSGGGSTYYADSVKGRFTISRDNAKNTVYLQMNCLKAEDTAVYYCAAFQPDNSRYRYDYWGQGTQVTVSS
polyreactivity (PSR sort gate): high polyreactivity

QVQLVESGGGLVQAGGSLRLSCAASAFILYFNAMGWYRQAPGKESDLVAAISRGDGYTYADSVKGRFTISRDNAKNTVYLLMNRLNPEDTEVYYCNAGLGVVVTLYVGSGYDSWGHGTQVTVSS
polyreactivity (PSR sort gate): low polyreactivity

QVQLVESGGGLVQAGGSLRLSCAASAGIFVVYGMGWYRQAPGKERELVAAISWRGGSTYYADSVKGRFTISRDNAKNTVYLQMNSLKPEDTAVYYCAADQYYGGYDYWGQGTQVTVSS
polyreactivity (PSR sort gate): low polyreactivity

QVQLVESGGGLVQAGGSLRLSCAASAIILQRNDMGRYRQAPGKERELVANIRDGGITFADSVKGRFTISRDNAKNTVYLQMNSLKPEDTAVYYCARDDTSPGYGDQSSNAAYYYWGQGTQVTVSS
polyreactivity (PSR sort gate): low polyreactivity

QVQLVESGGGLVQAGGSLRLSCAASAMAWYRQAPWKERELVATISATGGSTYYADSVKGRFTISRDNAKNTVYLQMNSLKPEDTAVYYCNKDPLVFVYWGQGTQVTVSS
polyreactivity (PSR sort gate): low polyreactivity

QVQLVESGGGLVQAGGSLRLSCAASAMGRYRQAPGKERELVAGITSSGGSTYYADSVKGRFTISRDNAKNTVYLQMNSLKPEDTAVYYCNADNAGYGYWSYPYYYWGQGTQVTVSS
polyreactivity (PSR sort gate): low polyreactivity

QVQLVESGGGLVQAGGSLRLSCAASARIFGWNSMGWYRQAPGKERELVAAISWRGGSTYYADSVKGRFTISRDNAKNTVYLQMNSLKPEDTAVYYCNALYTRYVSQWFGYWGEGTQVTVSS
polyreactivity (PSR sort gate): high polyreactivity

QVQLVESGGGLVQAGGSLRLSCAASARIFSQNAMGWYRQAPGKERELVAVISWSGVSTSYSDSVKGRFTISRDNAKNTVYLQMNSLKPEDTAVYYCAARRFYYYSRYPGYNSWGQGTLVTVSS
polyreactivity (PSR sort gate): high polyreactivity

QVQLVESGGGLVQAGGSLRLSCAASARTFPWYAMGLYRQAPGKERELVAAISWTGGSTYYADSVKGRFTISRDNAKHTVYLQMNSLKPEDTAVYYCAASPWYLKYEYWGQGTQVTVSS
polyreactivity (PSR sort gate): low polyreactivity

QVQLVESGGGLVQAGGSLRLSCAASARTFVWNAMGWYRQAPGKERELVAAIDWSGGSTYYADSVKGRFTISRDNAKNTVYFQMYSLKPEDTAVYYCAVAVWNGSEYWGQGSQVTVSS
polyreactivity (PSR sort gate): high polyreactivity

From the nanobody polyreactivity screen of Harvey et al. (2022)
